According to the supplement of paper PMC9170038:

What was measured:
[1] = system: MS2 coat protein; assay: apparent KD of MS2 coat protein; higher = weaker reporter binding; conditions: Eterna round: R101
Experimental: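 RNA-MaP: designed FMN/MS2 RNA switches (84 nt design region) are transcribed on-chip within common flanks and titrated with SNAP-549-labelled MS2 coat protein (about 1-3000 nM) in 100 mM Tris pH 7.5, 80 mM KCl, 4 mM MgCl2, without or with 200 uM FMN. Median apparent KD per design; activation ratio = KD,OFF / KD,ON.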

[2] = system: MS2 coat protein; assay: apparent KD of MS2 coat protein, switch OFF state (with FMN for OFF switches, without FMN for ON switches); designed switch direction (-1 OFF switch, 1 ON switch): 1; higher = weaker reporter binding; conditions: FMN input: 0 or 200 uM; Eterna round: R93 (includes R88 designs)
Method in brief: (§1)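 Designed RNA switches, transcribed on-chip from Illumina sequencing clusters, were titrated with SNAP-549-labelled MS2 coat protein from 0.7 or 1.5 nM to 3 µM in twofold steps. The solution was 100 mM Tris-HCl pH 7.5, 80 mM KCl, 4 mM MgCl2, with constant ligand or without it. Apparent KD is the median over each design's normalised cluster binding-curve fits.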

[3] = system: MS2 coat protein; assay: apparent KD of MS2 coat protein, switch ON state; designed switch direction (-1 OFF switch, 1 ON switch): 1; higher = weaker reporter binding; conditions: FMN input: 0 or 200 uM; Eterna round: R93 (includes R88 designs)
Method in brief: as §1

Sequence | apparent KD of MS2 coat protein ([1]; input ligand: FMN 200 uM) [µM] | apparent KD of MS2 coat protein ([1]; input ligand: none) [µM] | apparent KD of MS2 coat protein [2] [µM] | apparent KD of MS2 coat protein [3] [µM]
AAUAAAACUCAAGGAUAUGACUCCGAAACGGAGUCAGAAGGUGAGGAUCACCCACCUAGCUCAGCGUCGAAAGACGCUGAGCAA [#SharedSequence ExNG1 - 32] (puzzle (switch architecture): Exclusion NG 1) | 0.042 | 0.00901 | – | –
CUUAGUUUGUAGAAGGGUGACAUGAGGAUCACCCAUGUGCGUCGCCUGAAAGACCAGGGUACGCCACAGGAUAUACAAAGUAAG [Ororzati] (puzzle (switch architecture): Inverted Same State NG 2) | 0.0882 | 0.058 | – | –
AGAAAACAUGAGGAUCACCCAUGUGACAAUAUGGGAGGAUAUACGAAGACGAAAGUCGAAGUAGAAGGCCUAAAGA [Garnet 50] | – | – | 0.0667 | 0.0234
AAAAAACAUGAGGAUCACCCAUGUAAUACAACAUCAGGAUAUUGGCUUGACUAUGUCUUACAAGAAGGGAUGAAAA [Same State 1.3d (Same State 1 - Omei 2 )] | – | – | 0.0815 | 0.0305
AAGAAACAUGAGGAUCACCCAUGUAGAAAUAUGGGAGGAUAUACAAAGACGAAAGUCAAAGUAGAAGGCCUAAGAA [Mat - Same State 1 - Meechl mod - D129] | – | – | 0.0632 | 0.0166
AAAUAACAUGAGGAUCACCCAUGUUGCAACGGUACAGGAUAUGUGGGUGAAAAUAGCAUGACAGAAGGGUAGUGUA [SameState1 Malc#30] | – | – | 0.15 | 0.207
UAAAAACAUGAGGAUCACCCAUGUAGAAAUAUGGGAGGAUAUACAAAGACGAAAGUCAAAGUAGAAGGCCUAAAAU [Mat - Same State 1 - Eli mod - 32] | – | – | 0.0622 | 0.0165
AAAAAAAAAACUCAGGAUAUAGAUUGUAGAACAUGAGGAUCACCCAUGUAGUGAAAGAAGAGAGACUAGAAGGGAGUAAAAAAAAA [Same State 2 #3] | – | – | 0.0691 | 0.0432
AAAACACAUGAGGAUCACCCAUGUAGAAAUACGGGAGGAUAUACGAAAACGAAAGACAAAGUAGAAGGCCUAAAAG [saturn 7] | – | – | 0.053 | 0.0387
AAAAAACAUGAGGAUCACCCAUGUAGAAACAUGGGAGGAUAUACGAAGACGAAAGUCAAAGUAGAAGGCCUAAGAG [Garnet 89] | – | – | 0.592 | 0.183
CGGAAGGAGAGAGAGGAUAUCCAAAGGAAAACAUGAGGAUCACCCAUGUAGAAGGUAGGAAAUUGGGAGAAGGCUCAAGAGAGAG [salish99-ss2-119(!)] | – | – | 0.0514 | 0.0374
AUAAAACAUGAGGAUCACCCAUGUAAAAAAGCAUGAGGAUAUAUAAAAAGAAAAAGAAGAAUAGAAGGCAUAGUAA [JR_SS001_Sub1222] | – | – | 0.0521 | 0.0714
AAUAUAUUAAGUGAGGAUAUCGAGAAAAAAACAUGAGGAUCACCCAUGUGGGAAACAUGGUAGGGUGAGAAGGUACUUAAUAUAU [Samwise Clockwise 22 - Jieux - Same State 2] | – | – | 0.399 | 0.27
AACAAUCUAUCUGAGGAUAUGUGUCGAAAGACAUGAGGAUCACCCAUGUGAAAACAUGGGAAAACACAGAAGGCAGAUAGAUUGA [SS2: 1152] | – | – | 0.0332 | 0.0549
UAUAGACAUGAGGAUCACCCAUGUAGAAUUAUGGGAGGAUAUACAAAGACGAGAGUCAGAGUAGAAGGCCUAGGAG [salish99-ss1-153] | – | – | 0.0634 | 0.0318
ACAAUACAUGAGGAUCACCCAUGUUAGCUGGGCGAAGGAUAUGUAGAUGGAUAAAAAUAUGCAGAAGGUCGAUAAC [JR_SS001_Sub209] | – | – | 0.109 | 0.0687
CUCAGGAAGAGAGAGGAUAUCCAAAGGAAAACAUGAGGAUCACCCAUGUAAAAGGUAGGAAAUUGGGAGAAGGCUCAAGAGAGAG [salish99-ss2-096] | – | – | 0.04 | 0.0223
AGAAAUAAAACACAGGAUAUCCAAAAGAAAACAUGAGGAUCACCCAUGUAAAAUAAAAUAAAAUGGGAGAAGGGUGAAAAUAAGA [Mat - Same State 2 - JL mod - D5] | – | – | 0.0502 | 0.15
AAAAGACAUGAGGAUCACCCAUGUCAAAACAUAGGAGGAUAUGUCUGGAAAAAAGACUGGACAGAAGGCCUUUGUC [SS1 - 59] | – | – | 0.0189 | 0.0155
GACUGACAUGAGGAUCACCCAUGUAUUCAAACAUGAGGAUAUAUGACACGUCAUCGACGGAUAGAAGGCAUAGAUG [JR_SS001_Sub1210] | – | – | 0.205 | 0.163

Sequence | apparent KD of MS2 coat protein ([1]; input ligand: FMN 200 uM) [µM] | apparent KD of MS2 coat protein ([1]; input ligand: none) [µM] | apparent KD of MS2 coat protein [2] [µM] | apparent KD of MS2 coat protein [3] [µM]
CAGAGACAUGAGGAUCACCCAUGUAGGAUUAUGGGAGGAUAUACAAAGACGAGAGUCAGAGUAGAAGGCCUAGGAC [salish99-ss1-144] | – | – | 0.0456 | 0.0208
AUAAAACAUGAGGAUCACCCAUGUAGAAAUAUGGGAGGAUAUACGAAGACGAAAGUCAAAGUAGAAGGCCUAAAAG [Mat - Same State 1 - Meechl mod - D115] | – | – | 0.0836 | 0.0265
AUAAAAUAAAAGGAGGAUAUCCUAAAUAAAACAUGAGGAUCACCCAUGUAAAAAAUAAUAAAAUGGGAGAAGGCCUAAAAUAAAU [SS2 M 25] | – | – | 0.035 | 0.0169
AAUAUAUUAAGCGAGGAUAUCGAGGAAAAAACAUGAGGAUCACCCAUGUGGGUAAAAAAAAAAAGUGAGAAGGUGCUUAAUAUAU [Samwise Clockwise 9 - Jieux - Same State 2] | – | – | 0.0747 | 0.0318
AUAAAACAUGAGGAUCACCCAUGUAGAAAUAUGGGAGGAUAUACAAAGACGAAAGUCGAGGUAGAAGGCCUAAAAG [Mat - Same State 1 - Meechl mod - D121] | – | – | 0.0979 | 0.0213
UACAGACAUGAGGAUCACCCAUGUAGAAUUAUGGGAGGAUAUACAAAGACGAGAGUCAGAGUAGAAGGCCUAGGAG [salish99-ss1-165] | – | – | 0.0569 | 0.0253
GCCUAACAUGAGGAUCACCCAUGUAGUGGGUUGUUAGGAUAUGGGCCGCAUUACGCUGCACCAGAAGGAAUAGAAG [Rasoraer] | – | – | 0.475 | 0.319
AAAAUAAAAUAAAAGGAUAUAAAAUAAAAAACAUGAGGAUCACCCAUGUGAAAACAUGAAAAAAAAAAGAAGGAAAAAUAAAAAA [SS2: 76 No MS2] | – | – | 0.0316 | 0.0213
CAGGGACAUGAGGAUCACCCAUGUGGGAUUAUGGGAGGAUAUACAAAGACGAGAGUCAGAGUAGAAGGCCUAGGAC [salish99-ss1-128] | – | – | 0.0857 | 0.0373
AUAUAUAUAAGGUAGGAUAUACUAAAGUAAACAUGAGGAUCACCCAUGUAAAGAAAGAAACUCAUGUAGAAGGACCAUAUAUAUA [Original: 77%, More Tesla, 1] | – | – | 0.0999 | 0.0213
ACCCGAAAGACGUAGGAUAUGUGGUCACCGACAUGAGGAUCACCCAUGUAUGCGGGAGAAUGGGUGCAGAAGGACGCUGUUCGGU [Antilera] | – | – | 0.192 | 0.0219
AGAAAACAUGAGGAUCACCCAUGUGAUAACAUGGGAGGAUAUACGAGGACGAUAGUCAAGGUAGAAGGCCUAAAGA [Garnet 71] | – | – | 0.0321 | 0.0973
GAAAAACAUGAGGAUCACCCAUGUGAAAAUAUGGGAGGAUAUACGAAGACGAAAGUCAAAGUAGAAGGCCUAAAAG [Garnet 31] | – | – | 0.0879 | 0.0238
AAGAAAGUUUACGAGGAUAUGUUCCGCAGUACAUGAGGAUCACCCAUGUGAACACGAAGGGCGACGCAGAAGGCGUGAGCAAUGA [Orononed] | – | – | 0.0892 | 0.0309
AAAAAACAUGAGGAUCACCCAUGUAGAAACAUGGGAGGAUAUACAAAGACGAAAGUCAAAGUAGAAGGCCUAAAGA [Mat - Same State 1 - Mod - D162] | – | – | 0.182 | 0.162
AUAAUAAACUGUGAGGAUAUCCAUAAUAAAACAUGAGGAUCACCCAUGUGUAGAUAAUAAUAAUGGGAGAAGGCACAUAAUAAUA [Mat - Same state - Mayanna Mod - D102] | – | – | 0.0262 | 0.0196
CGGAGACAUGAGGAUCACCCAUGUGAGAAGAGGCGAGGAUAUCGAAAGAAAGAAGAGAAACGAGAAGGCGCGAGCU [salish99-SS1-072] | – | – | 0.0276 | 0.0231
AAAAAACAAAGAGAGGAUAUCCUGAAAAAAACAUGAGGAUCACCCAUGUAAAGAAAUUUAAAAUGGGAGAAGGCUCUUUGAAAAA [Same State 2.6c ( Helter Skelter 1)] | – | – | 0.0223 | 0.0246
AGGAAACAUGAGGAUCACCCAUGUAAGAUAUACACAGGAUAUGCGAAAAGAAACAAAGAAGCAGAAGGGUGGAAAA [75%, Ex sub1, 11] | – | – | 0.0316 | 0.0165
UCCUUACAUGAGGAUCACCCAUGUCGCAGGAAUCAAGGAUAUGGGACCGCAAGACGGAAACCAGAAGGUGAAAUAU [Gedizala] | – | – | 0.287 | 0.181
